# Data as given in patent publication US20110117082A1 (SHANGHAI FUDAN ZHANGJIANG BIO PHARMACEUTICAL, published 2011).
# T1: LT28-171 (lymphotoxin) (UniProt P01374)
# T1 sequence (looked up): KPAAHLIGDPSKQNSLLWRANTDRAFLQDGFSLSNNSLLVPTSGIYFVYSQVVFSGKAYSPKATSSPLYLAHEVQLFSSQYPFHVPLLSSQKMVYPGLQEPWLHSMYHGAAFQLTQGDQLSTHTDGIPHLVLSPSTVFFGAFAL
# B1: LT28-171 (lymphotoxin) (ligand, UniProt P01374 62-205, looked up)
# chain: KPAAHLIGDPSKQNSLLWRANTDRAFLQDGFSLSNNSLLVPTSGIYFVYSQVVFSGKAYSPKATSSPLYLAHEVQLFSSQYPFHVPLLSSQKMVYPGLQEPWLHSMYHGAAFQLTQGDQLSTHTDGIPHLVLSPSTVFFGAFAL
# notes: range 28-171; these probably count on the mature protein (171 residues), not on the precursor
# B2: wild-type soluble human TNFRp75:Fc fusion protein (ENBREL from AMGEN) (Fc fusion, not shown: a dimerising Fc or GST)
# chain: LPAQVAFTPYAPEPGSTCRLREYYDQTAQMCCSKCSPGQHAKVFCTKTSDTVCDSCEDSTYTQLWNWVPECLSCGSRCSSDQVETQACTREQNRICTCRPGWYCALSKQEGCRLCAPLRKCRPGFGVARPGTETSDVVCKPCAPGTFSNTTSSTDICRPHQICNVVAIPGNASMDAVCTSTSPTRSMAPGAVHLPQPVSTRSQHTQPTPEPSTAPSTSFLLPMGPSPPAEGSTGD
# Columns and labels:
# LT28-171 (lymphotoxin) [1] = biological target: T1, LT28-171 (lymphotoxin); assay: cell-based or functional assay
# [2] = biological target: tumor necrosis factor α (TNFα) (UniProt P01375); assay: cell-based or functional assay
# [3] = biological target: B2; assay: SPR, Biacore3000, receptor:Fc amine-coupled to CM5 chip, ligand in flow, 1:1 Langmuir fit
# Experimental: The interaction of the receptor and the ligand was measured in kinetics assay using Wizard of Biacore3000. All the ligands were applied at a flow rate of 40 μL/min for 1 min, dissociated for 2 min, and then 50 mM NaOH and HBS-P buffer were applied at a flow rate of 100 μL/min for 15s and 60s to regenerate the ligands (50 mM NaOH and HBS-P buffer were applied at a flow rate of 100 μL/min for 10s and 30s to regenerate in the primary screening). The experimental data were fit to the 1:1 Langmuir association model in the analysis software of Biacore3000 to provide the specific kinetic constant.
# LT28-171 (lymphotoxin) [4] = biological target: B1; assay: cell-based or functional assay
# tumor necrosis factor α (TNFα), sequence (P01375 77-233 limits assumed): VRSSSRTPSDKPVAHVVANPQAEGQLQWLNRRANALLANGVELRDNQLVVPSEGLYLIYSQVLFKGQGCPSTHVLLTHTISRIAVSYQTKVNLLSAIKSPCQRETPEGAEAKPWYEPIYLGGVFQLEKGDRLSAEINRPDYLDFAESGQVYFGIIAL
Molecule,EC50(ng/ml) of the neutralizing activity of the mutants against LT (LT28-171 (lymphotoxin) [1]) [ng/mL],Enhancement of the neutralizing activity against LT (LT28-171 (lymphotoxin) [1]) [%],EC50(ng/ml) of the neutralizing activity of the mutants (Example 9: against the cytotoxicity of TNFα) [2] [ng/mL],Enhancement of the neutralizing activity against TNFα [2] [%],neutralizing activity to TNFα relative to wild-type soluble TNFRp75: Fc (ENBREL from AMGEN) (times that of wild-type TNFRp75: Fc) [2],Kd [3] [nM],koff [3] [s⁻¹],kon [3] [M⁻¹ s⁻¹],EC50 of the neutralizing activity on LT (LT28-171 (lymphotoxin) [4]) [ng/mL]
TNFRp75 (E92H): Fc fusion protein,3.74,1180,9.03,129,,,,,
TNFRp75 (E92A): Fc fusion protein,7.93,291,6.34,130,,,,,
"TNFRp75 (E92S, W89Y): Fc fusion protein",6.28,368,12.2,133,,,,,
TNFRp75 (E92N): Fc fusion protein,7.94,277,5.68,131,1.33,,,,
"TNFRp75 (E92N, W89F): Fc fusion protein",7.56,308,1020,128,,,,,
B1,,,,,,0.134,6.99e-07,5230,
B2,,,,,,,,,22.3
